This passage reports average fluorescence intensity results from patent EP1314779B1.

Test [1] deals with proEGF on the surface of NCI-H292 cell membranes (human) (UniProt P01133). Put plainly: flow cytometry on NCI-H292 cells, background staining with normal mouse IgG1.
Test [2] shares this target. Described as above. The source holds these as a separate data set.

Read-outs that look alike come from different tables or passages of the source.

Chain of UniProt P01133 (P01133 23-1207): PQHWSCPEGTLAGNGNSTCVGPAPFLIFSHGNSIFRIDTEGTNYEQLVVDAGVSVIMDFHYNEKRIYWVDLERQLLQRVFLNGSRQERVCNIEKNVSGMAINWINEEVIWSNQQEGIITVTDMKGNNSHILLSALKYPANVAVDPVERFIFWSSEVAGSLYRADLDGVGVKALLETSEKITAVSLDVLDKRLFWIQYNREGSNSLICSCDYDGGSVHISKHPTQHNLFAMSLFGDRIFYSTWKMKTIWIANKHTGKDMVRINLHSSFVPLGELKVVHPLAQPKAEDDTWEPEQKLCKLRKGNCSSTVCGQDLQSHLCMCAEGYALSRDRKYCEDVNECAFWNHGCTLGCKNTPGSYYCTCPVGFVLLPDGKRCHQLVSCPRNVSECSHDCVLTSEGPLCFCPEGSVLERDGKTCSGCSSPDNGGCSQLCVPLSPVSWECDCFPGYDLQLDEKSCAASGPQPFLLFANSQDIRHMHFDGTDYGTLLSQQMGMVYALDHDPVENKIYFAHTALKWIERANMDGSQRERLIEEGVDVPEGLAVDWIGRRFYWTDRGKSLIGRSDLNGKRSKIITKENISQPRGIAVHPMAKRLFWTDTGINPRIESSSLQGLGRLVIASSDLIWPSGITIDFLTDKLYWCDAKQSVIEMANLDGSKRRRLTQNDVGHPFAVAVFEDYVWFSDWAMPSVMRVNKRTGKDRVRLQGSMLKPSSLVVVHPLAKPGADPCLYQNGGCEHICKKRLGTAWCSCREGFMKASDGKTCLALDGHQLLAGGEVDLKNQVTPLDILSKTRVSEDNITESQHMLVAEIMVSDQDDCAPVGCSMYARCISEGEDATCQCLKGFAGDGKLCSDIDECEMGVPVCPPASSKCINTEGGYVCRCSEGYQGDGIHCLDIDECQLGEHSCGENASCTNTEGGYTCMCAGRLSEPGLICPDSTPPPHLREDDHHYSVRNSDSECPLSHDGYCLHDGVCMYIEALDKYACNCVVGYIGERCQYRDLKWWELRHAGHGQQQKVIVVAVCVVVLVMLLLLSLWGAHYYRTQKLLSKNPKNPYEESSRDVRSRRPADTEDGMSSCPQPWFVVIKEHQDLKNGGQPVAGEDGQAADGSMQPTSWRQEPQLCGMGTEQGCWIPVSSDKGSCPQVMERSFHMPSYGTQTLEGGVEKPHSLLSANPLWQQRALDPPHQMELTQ

With “normal mouse IgG1 (produced by R&D Corp.) (antibody)”, the results for the average fluorescence intensity in test [1] and in test [2] were 8.44 and 4.62, respectively.
